Experiment [1] deals with T1, ERRgamma ligand-binding domain (LBD) (Homo sapiens, UniProt P62508).
T1 sequence (P62508 233-457 limits assumed): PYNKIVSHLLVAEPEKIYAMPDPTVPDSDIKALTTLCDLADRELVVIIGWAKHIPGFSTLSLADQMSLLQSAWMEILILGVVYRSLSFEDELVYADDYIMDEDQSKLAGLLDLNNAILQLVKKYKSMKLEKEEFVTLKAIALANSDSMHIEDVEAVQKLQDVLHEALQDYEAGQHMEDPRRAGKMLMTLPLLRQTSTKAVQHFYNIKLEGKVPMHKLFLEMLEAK
Conditions: cited from earlier work; for interaction with ERRgamma: in the absence of ligand.

Experiment [2] concerns the target T2, (Homo sapiens, UniProt P11474).
T2 sequence (P11474 1-423): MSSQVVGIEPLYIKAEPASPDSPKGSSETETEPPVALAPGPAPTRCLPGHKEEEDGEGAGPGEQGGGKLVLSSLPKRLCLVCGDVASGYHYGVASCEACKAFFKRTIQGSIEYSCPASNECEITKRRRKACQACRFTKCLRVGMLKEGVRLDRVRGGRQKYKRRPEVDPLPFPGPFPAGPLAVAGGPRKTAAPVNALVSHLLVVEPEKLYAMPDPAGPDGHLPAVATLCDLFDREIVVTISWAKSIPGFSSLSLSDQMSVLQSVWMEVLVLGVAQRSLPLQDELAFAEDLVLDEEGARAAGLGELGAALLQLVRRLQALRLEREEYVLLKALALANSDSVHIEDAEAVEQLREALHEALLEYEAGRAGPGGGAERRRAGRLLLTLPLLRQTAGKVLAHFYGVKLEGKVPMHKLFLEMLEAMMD
The following applies: phage display peptides; cited from earlier work.

The target in the next experiment is T3, ERα (Homo sapiens, UniProt P03372).
T3 sequence (P03372 1-595): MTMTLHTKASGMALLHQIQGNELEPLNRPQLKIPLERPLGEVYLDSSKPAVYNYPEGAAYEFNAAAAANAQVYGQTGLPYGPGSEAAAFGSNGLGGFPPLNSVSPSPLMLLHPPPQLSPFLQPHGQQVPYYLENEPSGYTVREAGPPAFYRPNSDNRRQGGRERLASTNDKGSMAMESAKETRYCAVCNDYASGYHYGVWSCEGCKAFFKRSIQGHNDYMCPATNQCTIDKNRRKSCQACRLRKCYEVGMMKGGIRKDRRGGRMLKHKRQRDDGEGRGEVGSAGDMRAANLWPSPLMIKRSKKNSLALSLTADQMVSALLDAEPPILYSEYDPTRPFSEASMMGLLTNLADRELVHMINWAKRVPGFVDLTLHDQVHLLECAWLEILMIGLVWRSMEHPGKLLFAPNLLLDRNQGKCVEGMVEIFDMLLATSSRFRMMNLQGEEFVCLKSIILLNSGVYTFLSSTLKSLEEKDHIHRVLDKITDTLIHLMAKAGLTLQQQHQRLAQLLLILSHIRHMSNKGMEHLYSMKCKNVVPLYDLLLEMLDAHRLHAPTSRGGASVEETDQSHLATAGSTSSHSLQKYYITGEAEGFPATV
The following applies: inhibition of estrogen receptor/coactivator recognition, cited from earlier work; for Ki: read-out: K, values ERα.

A further experiment concerns the target ERβ (Homo sapiens, UniProt Q92731). Conditions: cited from earlier work; for Ki: inhibition of estrogen receptor/coactivator recognition, read-out: K, values ERβ; for ERβ/ERα: ratio of K values.
Experiment [3] concerns the target T4, native human ESRRG protein (Estrogen-receptor related receptor gamma) (human, UniProt P62508 229-458, limits assumed).
T4 construct: the screened protein is called 'native human ESRRG protein'; also called ESSRG; ERRγ
T4 sequence (looked up): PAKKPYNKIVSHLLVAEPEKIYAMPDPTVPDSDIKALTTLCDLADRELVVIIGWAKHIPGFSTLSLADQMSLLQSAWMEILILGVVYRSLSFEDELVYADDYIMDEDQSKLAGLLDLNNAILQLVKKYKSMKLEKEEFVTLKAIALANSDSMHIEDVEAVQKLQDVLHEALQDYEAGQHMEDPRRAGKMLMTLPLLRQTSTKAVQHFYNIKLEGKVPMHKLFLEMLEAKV
The experiment is described as follows: custom peptide microarray density chip.

Experiment [4] deals with T4, native human ESRRG protein …. The experiment is described as follows: peptide microarray, Iteration 1; bound ESRRG detected with fluorescent anti-ESRRG mAb. As to the method: Screening was carried out typically by hybridization of the protein (1 μg/mL) against the array for 1 h at 4° C.; detection of bound protein was carried out using a fluorescently labeled anti-ESRRG mAb. (Direct labeling of ESRRG and alternative detection strategies are equally valid).
Daughter candidate ligands and their new Tier 3 and/or Tier 1 based combinations were synthesized in situ on an addressable peptide microarray and screened against native human ESRRG protein in order to determine sequences that bind to this protein. Bound protein was detected by a fluorescently labeled anti-ESRRG mAb. […] Excess (100×) competing biological matrices (human serum, HSA/BSA or bacterial protein extract) were used as backgrounds to select for specific ligands to the protein. Other competing proteins can be added to background for specificity selection and directed evolution of ligands.

The target of the next experiment is T5, Annexin A5 (Homo sapiens (Human), UniProt P08758 2-320, directly labeled with a fluorescent tag (Cy 5 per paragraph 324; Cy3 per paragraph 57)).
T5 construct: also called ANXA5; ANX-A5
T5 sequence: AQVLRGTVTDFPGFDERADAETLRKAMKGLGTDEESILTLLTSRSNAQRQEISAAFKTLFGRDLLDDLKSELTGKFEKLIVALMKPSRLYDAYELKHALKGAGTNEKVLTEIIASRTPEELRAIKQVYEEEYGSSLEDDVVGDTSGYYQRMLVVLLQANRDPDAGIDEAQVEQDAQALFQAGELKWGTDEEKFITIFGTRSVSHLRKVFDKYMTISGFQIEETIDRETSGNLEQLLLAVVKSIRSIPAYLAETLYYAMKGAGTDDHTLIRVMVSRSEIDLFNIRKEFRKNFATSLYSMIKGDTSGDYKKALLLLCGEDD
The experiment is described as follows: peptide density-array chip.

Where no end group is shown, it is not given here. A value given as a limit tells only on which side of the number the result lay.

ERβ, sequence (Q92731 whole entry, species assumed): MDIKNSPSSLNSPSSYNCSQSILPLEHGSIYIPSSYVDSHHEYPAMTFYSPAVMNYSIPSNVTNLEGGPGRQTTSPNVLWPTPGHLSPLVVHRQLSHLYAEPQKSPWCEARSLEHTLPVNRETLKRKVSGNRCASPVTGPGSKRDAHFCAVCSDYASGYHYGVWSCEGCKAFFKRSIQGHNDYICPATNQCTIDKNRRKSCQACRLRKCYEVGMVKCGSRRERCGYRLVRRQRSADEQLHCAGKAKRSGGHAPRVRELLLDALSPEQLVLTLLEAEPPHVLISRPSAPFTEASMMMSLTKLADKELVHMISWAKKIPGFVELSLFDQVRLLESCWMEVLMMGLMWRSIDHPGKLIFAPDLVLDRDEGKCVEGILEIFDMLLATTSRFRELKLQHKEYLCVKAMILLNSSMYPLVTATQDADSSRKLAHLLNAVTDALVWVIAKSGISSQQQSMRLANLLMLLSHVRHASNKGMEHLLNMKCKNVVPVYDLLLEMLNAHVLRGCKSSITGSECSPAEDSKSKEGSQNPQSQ

For the molecule 4-hydroxytamoxifen, in experiment [1] (increasing concentrations), the “displacement of fluorescein-labeled PGC1alpha peptide from the ERRgamma LBD” value is recorded as “displaced”.

With EAEEPSLLKKLLLAPANTQ [PGC1alpha], the “interaction with ERRgamma” value in experiment [1] is “interacted most strongly”.

On to GPQTPQAQQKSLLQQLLTE [SRC1-4], for which, in experiment [1], the “interaction with ERRgamma” value is given as “interacted most strongly”.

On to IPLSGSELSRLLLTEMPEL [Peptide L3-80], for which the “inhibition of transcriptional activity of EPPα” value in experiment [2] is on record as “reducing the transcriptional activity of EPPα to basal levels”.

As to KHKILHRLLQDSS [Structure 4], on ERα, the Ki is 380 nM. For the same molecule, at ERβ, the Ki was 6900 nM and the ERβ/ERα is 18.1.

Turning to KKILHRLLQ [Structure 3], the Ki at ERα is 170 nM. At ERβ, the Ki is 2800 nM and the ERβ/ERα is on record as 16.5.

Consider “LEQLL [Structure 1, H-Leu-Glu-Gln-Leu-Leu-OH]”, for which, on ERα, the “K, values ERα” value is “not active”. The Ki at ERβ is 201000 nM.

On to LPYEGSLLLKLLRAPVEEV [Peptide D22], for which the “interaction with ERRgamma” value in experiment [1] is “interacted most strongly”.

For LTERHKILHRLLQEGSPSD [Structure 9], the Ki on ERα was 700 nM. Moreover, at ERβ, the Ki was 5200 nM and the ERβ/ERα is given as 7.4.

Take MSVQYPELQRLLMAGSTEL [Peptide L3-28]: the “inhibition of transcriptional activity of EPPα” value in experiment [2] is given as “reducing the transcriptional activity of EPPα to basal levels”.

As to “Mannosylacetyl-Leu-Glu-Gln-Leu-Leu-OH (Mannosylacetyl-LEQLL-OH) [Structure 2]”, the Ki with ERα and with ERβ was > 200000 nM each time.

Take QAQQKSLLQQLLTE [Structure 10]: the Ki on ERα is 450 nM. For the same molecule, at ERβ, the Ki is 1100 nM and the ERβ/ERα was 2.4.

Regarding Ac-AANMFLLL, in experiment [3], binding was characterised by a dissociation constant (Kd) of 29 nM. Besides, in experiment [4], the “Sample B (Probe) Signal” value was 1750 fluorescence intensity units and the “log2 (Sample B/Sample A)” value was determined as 5.37.

Turning to Ac-LLHSSKSQ, in experiment [3], the Kd is 28.3 nM. In experiment [4], the “Sample B (Probe) Signal” value was 819 fluorescence intensity units and the “log2 (Sample B/Sample A)” value is 5.4.

In experiment [3], Ac-LLHKSKSQ had a dissociation constant Kd of 28.5 nM. Further, in experiment [4], the “Sample B (Probe) Signal” value is 962 fluorescence intensity units and the “log2 (Sample B/Sample A)” value stood at 4.99.

As to Ac-IKQNHNNS, the Kd in experiment [3] was found to be 12.5 nM. Also, in experiment [4], the “Sample B (Probe) Signal” value was 794 fluorescence intensity units and the “log2 (Sample B/Sample A)” value amounted to 9.63.

On to Ac-IKQDHNNS, for which the Kd in experiment [3] is 15.7 nM. Moreover, in experiment [4], the “Sample B (Probe) Signal” value is 701 fluorescence intensity units and the “log2 (Sample B/Sample A)” value is 9.45.

Turning to Ac-NSLLKHLL, in experiment [3], the Kd amounted to 20.7 nM. In experiment [4], the “Sample B (Probe) Signal” value is 14800 fluorescence intensity units and the “log2 (Sample B/Sample A)” value is 7.65.

In experiment [3], Ac-NIKVNANN came in with a Kd of 17 nM. In experiment [4], the “Sample B (Probe) Signal” value was 599 fluorescence intensity units and the “log2 (Sample B/Sample A)” value is 7.62.

In turn, Ac-AIRGALMG gave a Kd in experiment [3] of 27.4 nM. Further, in experiment [4], the “Sample B (Probe) Signal” value is 851 fluorescence intensity units and the “log2 (Sample B/Sample A)” value was 5.48.

The molecule Ac-AIRLHLMG gave a Kd in experiment [3] of 22.4 nM. Further, in experiment [4], the “Sample B (Probe) Signal” value was 943 fluorescence intensity units and the “log2 (Sample B/Sample A)” value came to 5.07.

As for SERYWARY (Array-synthesised 8-mer), in the experiment with Annexin A5, the Kd was 91.7 nM.

As for SERYYARY (Array-synthesised 8-mer), in the experiment with Annexin A5, the Kd came to 361 nM.

Molecule SERCWARY (Array-synthesised 8-mer) gave a Kd with Annexin A5 of 218 nM.

In the experiment with Annexin A5, SERCYARY (Array-synthesised 8-mer) showed a Kd of 301 nM.

SERYSARY (Array-synthesised 8-mer): in the experiment with Annexin A5, the Kd is 82.5 nM.

SERYTARY (Array-synthesised 8-mer) displayed a Kd in the experiment with Annexin A5 of 86.9 nM.

With Ac-ANNSRLLH, the Kd in experiment [3] was determined as 28.9 nM. Besides, in experiment [4], the “Sample B (Probe) Signal” value was 1480 fluorescence intensity units and the “log2 (Sample B/Sample A)” value stood at 5.54.

Take SERFFARY (Array-synthesised 8-mer): the dissociation constant Kd with Annexin A5 is 520 nM.

In the case of AYLHHAAG (Array-synthesised 8-mer), the Kd with Annexin A5 came to 87.6 nM.

As for AYLHGAAG (Array-synthesised 8-mer), the Kd in the experiment with Annexin A5 stood at 93.1 nM.

For the molecule AYLHYAAG (Array-synthesised 8-mer), binding with Annexin A5 was put at a Kd of 21.9 nM.

AYLVHAAG (Array-synthesised 8-mer) displayed a Kd in the experiment with Annexin A5 of 92.2 nM.

Turning to AYLGHAAG (Array-synthesised 8-mer), binding in the experiment with Annexin A5 was characterised by a dissociation constant (Kd) of 57.5 nM.

The molecule AYLGYAAG (Array-synthesised 8-mer) showed a Kd with Annexin A5 of 24.5 nM.

As to AYLMHAAG (Array-synthesised 8-mer), the Kd in the experiment with Annexin A5 was 63 nM.

Values taken from patent US20130053541A1, “METHODS FOR DISCOVERING MOLECULES THAT BIND TO PROTEINS” (LYNNTECH, INC., priority 2011, published 2013).
